Ends that are not written are not given here.
Target: T1, glutathione-S-transferase (GST) tagged human CAR ligand-binding domain (LBD) (human)
T1 construct: Component of a bought kit; It was held in the assay by a terbium-labelled anti-GST antibody (a tool only); also called CAR LBD; CAR-LBD
T1 sequence (Q14994 whole entry, looked up): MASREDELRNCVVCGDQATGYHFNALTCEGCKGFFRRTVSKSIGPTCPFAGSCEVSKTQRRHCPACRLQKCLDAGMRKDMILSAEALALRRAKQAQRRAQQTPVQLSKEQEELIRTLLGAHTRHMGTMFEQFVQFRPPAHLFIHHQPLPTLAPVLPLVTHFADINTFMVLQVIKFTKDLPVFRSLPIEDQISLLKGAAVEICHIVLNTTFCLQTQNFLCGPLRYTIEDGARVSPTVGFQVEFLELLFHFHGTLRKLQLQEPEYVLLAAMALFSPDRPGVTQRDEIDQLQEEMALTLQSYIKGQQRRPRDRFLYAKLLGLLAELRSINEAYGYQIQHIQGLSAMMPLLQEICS
Assay: FRET or BRET; LanthaScreen TR-FRET as a1, with the agonist CITCO 10 uM; three orders of adding the reagents (Figure 2A, 2B, 2C standard)
Settings: both partners purified

fold of TR-FRET ratio with CITCO 10 uM over vehicle control (order: CAR LBD, peptide and antibody, CITCO): 1.94 fold | fold of TR-FRET ratio with CITCO 10 uM over vehicle control (order: CITCO, peptide and antibody, CAR LBD): 2.26 fold | fold of TR-FRET ratio with CITCO 10 uM over vehicle control (standard order): 2.56 fold
Binder: EAEEPSLLKKLLLAPANTQ (also: fluorescein label, position not given here) [fluorescein-labeled PGC1α coactivator peptide]
